Source: article PMC3507807, “DNA binding specificity of ATAF2, a NAC domain transcription factor targeted for degradation by Tobacco mosaic virus” (BMC Plant Biology, 2012)

Assays:
[1] = target: T1, ATAF2 (Arabidopsis thaliana) (UniProt Q9C598); assay: EMSA; conditions: EMSA: 20 mM Tris-HCl pH 8.0, 60 mM KCl, 5 mM MgCl2, 100 ug/ml BSA, 5% glycerol, 1 mM DTT, 0.5 ug poly(dI-dC) in 10 ul, 100-300 fmol probe, 25 C 30 min
T1 sequence: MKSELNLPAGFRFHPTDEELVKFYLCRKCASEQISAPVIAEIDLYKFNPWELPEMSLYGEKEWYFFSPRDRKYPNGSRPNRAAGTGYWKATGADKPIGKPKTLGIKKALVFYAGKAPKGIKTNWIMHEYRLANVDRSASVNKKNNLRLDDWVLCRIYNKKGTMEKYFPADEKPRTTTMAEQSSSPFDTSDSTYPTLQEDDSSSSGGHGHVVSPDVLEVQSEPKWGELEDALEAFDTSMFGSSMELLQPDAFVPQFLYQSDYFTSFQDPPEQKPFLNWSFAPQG

ATAF2 = target: T2, ATAF2 (Arabidopsis thaliana, UniProt Q9C598 1-283); assay: EMSA; binding not dramatically reduced; EMSA: 20 mM Tris-HCl pH 8.0, 60 mM KCl, 5 mM MgCl2, 100 ug/ml BSA, 5% glycerol, 1 mM DTT, 0.5 ug poly(dI-dC) in 10 ul, 100-300 fmol probe, 25 C 30 min; 5% native PAGE, 0.5X TBE. Footprint: same binding buffer, 10 fmol probe; conditions: protein: recombinant; tags: N-terminal His6 (pTrcHisA); chain copies: 2; label: 5'-32P
T2 sequence: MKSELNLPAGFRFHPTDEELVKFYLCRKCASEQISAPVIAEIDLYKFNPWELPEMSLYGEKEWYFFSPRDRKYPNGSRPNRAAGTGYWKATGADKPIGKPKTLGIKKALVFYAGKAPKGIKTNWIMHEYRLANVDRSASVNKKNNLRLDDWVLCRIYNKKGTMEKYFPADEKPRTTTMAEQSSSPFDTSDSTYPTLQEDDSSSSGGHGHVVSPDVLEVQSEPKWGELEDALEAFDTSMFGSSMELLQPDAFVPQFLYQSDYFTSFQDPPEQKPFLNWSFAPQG

[2] = target: the molecule itself; assay: SEC; Superdex-200 HR 10/30; ~160 ug purified protein, incubated 20 min at room temperature and run in 25 mM Tris-HCl pH 7.5, 10% glycerol, 500 mM NaCl, 0.5 mM EDTA; fractions checked by SDS-PAGE; mass markers 670, 158, 44 and 17 kDa

Q: How did the binding signal ([1]; reduction >85%) turn out when “TCAGAAGAGCAAGTCCCCTAAAACACATAT (double strand) [C2 (nt 13-18 TCAAAT to GTCCCC)]” was run?
A: Its binding signal is < 15 % of WT.

Q: With “TCCAAAGAGCAATCAAATTAAAACACATAT (double strand) [M1 (nt 3-4 AG to CA)]” as the molecule, how does the binding signal ([1]; stated as 91% reduction) read?
A: Its binding signal is 9 % of WT.

Q: With “TCTTTTTAGCAATCAAATTAAAACACATAT (double strand) [C1 (nt 3-7 AGAAG to TTTTT)]” as the molecule, how does the binding signal ([1]; reduction >85%) read?
A: Its binding signal is < 15 % of WT.

Q: With “TCAGAAGAGCAATCAAATTAATTTTTTTAT (double strand) [C3 (nt 22-27 AACACA to TTTTTT)]” as the molecule, how does the binding signal ([1]; reduction >85%) read?
A: The binding signal was < 15 % of WT.

Q: Which binding signal ([1]; stated as 87% reduction) does the source give for “TCAGAAGAGCAATCAAACCAAAACACATAT (double strand) [M4 (nt 18-19 TT to CC)]” here?
A: The binding signal was 13 % of WT.

Q: “TCAGAAGAGCAATCAAATTAAAGAACATAT (double strand) [M5 (nt 23-24 AC to GA)]” was tested. Which binding signal ([1]; stated as 96% reduction) did it give?
A: Its binding signal is 4 % of WT.

Q: “TCAGAAGAGCAATCAAATTAAAACACATAT (double strand) [30-bp ATAF2 binding sequence (wild type)]” was tested. Which binding signal [1] did it give?
A: The binding signal was 100 % of WT.

Q: For “TCAGAAGAGCAAGAAAATTAAAACACATAT (double strand) [M3 (nt 13-14 TC to GA)]”, which binding signal ([1]; stated as 47% reduction) is on record?
A: Its binding signal is 53 % of WT.

B1: M2 (dsDNA)
DNA 1: TCAGAAGTACAATCAAATTAAAACACATAT
DNA 2: ATATGTGTTTTAATTTGATTGTACTTCTGA
Q: Does B1 bind (ATAF2)?
A: Result: binds

B2: ATAF2 NAC domain (ATAF2-165, 1 aa to 165 aa) (domain or fragment, Arabidopsis, UniProt Q9C598 1-165, looked up)
chain: MKSELNLPAGFRFHPTDEELVKFYLCRKCASEQISAPVIAEIDLYKFNPWELPEMSLYGEKEWYFFSPRDRKYPNGSRPNRAAGTGYWKATGADKPIGKPKTLGIKKALVFYAGKAPKGIKTNWIMHEYRLANVDRSASVNKKNNLRLDDWVLCRIYNKKGTMEK
notes: ATAF2 (AT5g08790), Arabidopsis thaliana NAC domain transcription factor, truncated version containing only the NAC domain, residues 1-165; source: E. coli BL21 (+), pTrcHisA, purified (Ni-NTA)
Q: For B2, which “stoichiometry N” value [2] is on record?
A: The value was 2.

B3: M6 (dsDNA)
DNA 1: TCAGAAGAGCAATCAAATTAAAACACACCT
DNA 2: AGGTGTGTTTTAATTTGATTGCTCTTCTGA
Q: Does B3 bind (ATAF2)?
A: Result: binds
